Results taken from patent publication US11260101 (JINAN UNIVERSITY, dated 2022).

Biological target: T1, fibroblast growth factor receptor 2 (FGFR2)
T1 construct: also called membrane receptor FGFR2
Assay: isothermal titration calorimetry (ITC)
Text: 1. Detection of the Affinity Between the Repair Peptide R1 and FGFR2 by Using the ITC Method The affinity was detected by an isothermal totration calorimetry (ITC), and the detection result was shown in FIG. 1. […] (The K denoted the affinity constant, and the Kd denoted the dissociation constant. The larger the K was and the smaller the Kd was, the stronger the affinity was).

T1 sequence (P21802 22-821): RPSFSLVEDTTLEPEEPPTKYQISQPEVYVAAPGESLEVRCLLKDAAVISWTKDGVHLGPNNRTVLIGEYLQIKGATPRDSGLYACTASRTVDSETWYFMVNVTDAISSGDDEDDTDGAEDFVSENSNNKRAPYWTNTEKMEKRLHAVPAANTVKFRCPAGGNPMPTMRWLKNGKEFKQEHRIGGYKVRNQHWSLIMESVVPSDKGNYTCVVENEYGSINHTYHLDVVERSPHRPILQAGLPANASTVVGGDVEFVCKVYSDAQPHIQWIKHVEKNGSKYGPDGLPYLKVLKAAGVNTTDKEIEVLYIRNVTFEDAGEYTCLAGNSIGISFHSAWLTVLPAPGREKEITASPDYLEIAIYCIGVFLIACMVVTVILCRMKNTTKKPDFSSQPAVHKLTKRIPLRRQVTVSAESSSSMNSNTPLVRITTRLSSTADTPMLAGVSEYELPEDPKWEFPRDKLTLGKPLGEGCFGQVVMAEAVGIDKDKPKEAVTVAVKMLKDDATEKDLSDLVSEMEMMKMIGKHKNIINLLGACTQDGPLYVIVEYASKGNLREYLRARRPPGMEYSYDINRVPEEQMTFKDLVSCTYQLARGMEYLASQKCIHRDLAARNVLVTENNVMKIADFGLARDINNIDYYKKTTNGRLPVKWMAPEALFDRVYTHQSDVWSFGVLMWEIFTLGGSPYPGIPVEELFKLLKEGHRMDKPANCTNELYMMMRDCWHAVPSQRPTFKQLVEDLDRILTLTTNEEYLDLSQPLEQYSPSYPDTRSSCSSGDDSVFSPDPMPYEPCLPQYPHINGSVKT

B1: repair peptide R1 (peptide)
peptide: GPANVET
notes: Linear 7-residue peptide made by chemical synthesis; also called R1 peptide; GPANVET
Ka: 7.35e+08 M⁻¹
Kd: ~1.37 nM
